Measurements taken from US20250382344A1, “Soluble GLP1/GIP/NPY2 Receptor Triple Agonists” (Boehringer Ingelheim International GmH, priority 2024, published 2025).
*1 amine or outer side, *2 acyl side, *3 side chain or, on linkers, in order; H or OH if unused. Where no end group is shown, it is not given here. Side-chain parts run from the residue outwards. [ ]: non-standard residue; d: D form. The star is where a group is joined. C20 diacid = O=C(O)CCCCCCCCCCCCCCCCCCC(=O)*; C18 diacid = O=C(O)CCCCCCCCCCCCCCCCC(=O)*; γGlu = O=C(O)[C@H](CCC(=O)[*:2])N[*:1]; εLys = N[C@@H](CCCCN[*:1])C(=O)[*:2]; TRX = not defined here; AEEA = NCCOCCOCC(=O)O; Aib = CC(C)(N)C(=O)O

Key:
Assay in all cases: cell-based or functional assay
human GIP receptor [1] = molecular target: T1, human GIP receptor (human, UniProt P48546 22-466)
T1 sequence (looked up): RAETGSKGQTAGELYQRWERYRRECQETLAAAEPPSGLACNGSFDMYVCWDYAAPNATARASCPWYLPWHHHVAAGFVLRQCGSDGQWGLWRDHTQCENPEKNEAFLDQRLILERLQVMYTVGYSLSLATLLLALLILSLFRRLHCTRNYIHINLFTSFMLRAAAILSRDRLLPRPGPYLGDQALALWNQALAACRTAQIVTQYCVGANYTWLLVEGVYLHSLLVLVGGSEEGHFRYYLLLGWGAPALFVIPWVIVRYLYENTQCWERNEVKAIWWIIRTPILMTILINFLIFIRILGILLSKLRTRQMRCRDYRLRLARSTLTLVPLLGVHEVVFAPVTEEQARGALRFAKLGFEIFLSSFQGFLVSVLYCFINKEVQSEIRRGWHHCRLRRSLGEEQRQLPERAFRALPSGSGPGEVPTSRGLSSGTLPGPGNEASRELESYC

[2] = molecular target: T2, human neuropeptide Y2 receptor (human, UniProt P49146 1-381)
T2 sequence (looked up): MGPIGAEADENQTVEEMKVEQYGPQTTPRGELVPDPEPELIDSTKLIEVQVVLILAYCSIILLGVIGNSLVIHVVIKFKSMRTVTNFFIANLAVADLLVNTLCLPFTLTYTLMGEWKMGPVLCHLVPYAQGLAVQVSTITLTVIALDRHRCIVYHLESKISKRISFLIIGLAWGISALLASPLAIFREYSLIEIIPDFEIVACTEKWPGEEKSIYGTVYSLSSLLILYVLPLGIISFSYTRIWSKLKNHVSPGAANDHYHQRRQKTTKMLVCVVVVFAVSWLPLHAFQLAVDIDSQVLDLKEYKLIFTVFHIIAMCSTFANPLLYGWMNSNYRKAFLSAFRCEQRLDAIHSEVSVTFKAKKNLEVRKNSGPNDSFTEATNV

human GIP receptor [3] = molecular target: T3, human GIP receptor (human, UniProt P48546 22-466); remark: listed apart in the source
T3 sequence (looked up): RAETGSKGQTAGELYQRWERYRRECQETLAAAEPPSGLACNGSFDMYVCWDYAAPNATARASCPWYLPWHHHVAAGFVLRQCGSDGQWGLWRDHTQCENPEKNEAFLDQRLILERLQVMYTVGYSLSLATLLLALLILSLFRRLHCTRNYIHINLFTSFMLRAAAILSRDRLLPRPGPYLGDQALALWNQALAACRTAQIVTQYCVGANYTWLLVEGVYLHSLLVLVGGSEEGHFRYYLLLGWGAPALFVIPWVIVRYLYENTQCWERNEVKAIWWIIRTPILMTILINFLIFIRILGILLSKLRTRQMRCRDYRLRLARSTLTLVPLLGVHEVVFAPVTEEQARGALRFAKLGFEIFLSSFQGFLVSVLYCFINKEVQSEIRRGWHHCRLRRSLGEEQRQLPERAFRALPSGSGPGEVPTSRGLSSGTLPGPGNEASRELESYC

Binder | EC50, CreLuc reporter, 100% hP (human GIP receptor [1]) | EC50, CreLuc reporter, 0.5% hP [2] | EC50, CreLuc reporter, 100% hP [2] | EC50, CreLuc reporter, 0.5% hP (human GIP receptor [3]) | EC50, CreLuc reporter, 0.5% hP (human GIP receptor [1]) | EC50, CreLuc reporter, 100% hP (human GIP receptor [3])
Y[Aib]EGTFTSDYSI[Aib]LEKQAQ[Aib]EFVRHLINK([γGlu-γGlu-γGlu-γGlu-C18 diacid])[Aib]TRQRY-NH2 [Compound 79] | 4.7 nM | 57.9 nM | 99.1 nM |  |  | 
YXEGTFTSDLSIXLEKQAQXAFVRHLINKXTRQRY (Aib at 2, 13, 20, 30; Lys29 epsilon-amino: C18DA-gGlu-gGlu-gGlu-gGlu-gGlu-gGlu-eLys; C-terminal amide) [Compound 169] |  |  |  | 0.4 nM |  | 
YXEGTFTSDYSIXLEKQAQXAFVRHLINKITRQRY (Aib at 2, 13, 20; Lys29 epsilon-amino acylated with C18DA-gGlu-gGlu-gGlu-gGlu-gGlu-gGlu-eLys; C-terminal amide) [Compound 66] |  | 9.8 nM | 99.3 nM |  | 0.2 nM | 
YXEGTFTSDYSIXLEKQAQXAFVRHLINKLTRQRY (Aib at 2, 13, 20; Lys29 epsilon-amino acylated with C18DA-gGlu-gGlu-gGlu-gGlu-gGlu-AHX; C-terminal amide) [Compound 69] | 5.5 nM | 7 nM | 56 nM |  | 0.2 nM | 
YXEGTFTSDLSIXLEKQAQXAFVRHLINKXTRQRY (Aib at 2, 13, 20, 30; Lys29 epsilon-amino acylated with C20DA-gGlu-gGlu-gGlu-gGlu-gGlu-AHX-AHX; C-terminal amide) [Compound 1] | 10.3 nM | 12.6 nM | 127 nM |  | 0.2 nM | 
YXEGTFTSDYSIXLELQAQXAFVRHLINKXTRQRY (Aib at 2, 13, 20, 30; Lys29 epsilon-amino acylated with C18DA-gGlu-gGlu-gGlu-gGlu-gGlu-gGlu-eLys; C-terminal amide) [Compound 65] | 16.8 nM | 65.8 nM | 406 nM |  | 0.7 nM | 
YXEGTFTSDYSIXLEKQAQXAFIRHLINKXTRQRY (Aib at 2, 20, 30; aMeL at 13; Lys29 epsilon-amino acylated with C18DA-gGlu-gGlu-gGlu-gGlu-gGlu-gGlu-eLys; C-terminal amide) [Compound 76] | 0.5 nM | 7.2 nM | 24.3 nM |  |  | 
YXEGTFTSDYSIXLEKQAQAAFVRHLINKXTRQRY (Aib at 2, 13, 30; Lys29 epsilon-amino acylated with C18DA-gGlu-gGlu-gGlu-gGlu-gGlu-gGlu-eLys; C-terminal amide) [Compound 61] |  | 24.1 nM | 42.1 nM |  | 0.4 nM | 
YXEGTFTSDYSIXLEKAAQXAFVRHLINKXTRQRY (Aib at 2, 13, 20, 30; Lys29 epsilon-amino acylated with C20DA-gGlu-gGlu-gGlu-gGlu-gGlu-gGlu-eLys; C-terminal amide) [Compound 4] | 11.5 nM | 17.7 nM | 194 nM |  | 0.3 nM | 
YXEGTFTSDYSIXLEKQAQXAFVRQLINKXTRQRY (Aib at 2, 13, 20, 30; Lys29 epsilon-amino acylated with C18DA-gGlu-gGlu-gGlu-gGlu-gGlu; C-terminal amide) [Compound 50] | 23.3 nM | 335 nM | 522 nM |  | 0.7 nM | 
YXEGTFTSDYSIXLENQAQXAFVRHLINKXTRQRY (Aib at 2, 13, 20, 30; Lys29 epsilon-amino acylated with C18DA-gGlu-gGlu-gGlu-gGlu-gGlu-gGlu-eLys; C-terminal amide) [Compound 6] | 7.3 nM | 14.7 nM | 51 nM |  | 0.7 nM | 
YXEGTFTSDYSIXLDAQAQXAFVRHLINKXTRQRY (Aib at 2, 13, 20, 30; Lys29 epsilon-amino acylated with C18DA-gGlu-gGlu-gGlu-gGlu-gGlu-gGlu-eLys; C-terminal amide) [Compound 55] | 7 nM | 18.3 nM | 108 nM |  | 0.4 nM | 
YXEGTFTSDYSIXLEKQAQXEFVRHLINKLTRQRY (Aib at 2, 13, 20; Lys29 epsilon-amino acylated with C20DA-gGlu-gGlu-gGlu-gGlu-gGlu-gGlu-eLys; C-terminal amide) [Compound 39] | 22.9 nM | 10.8 nM | 119 nM |  | 0.9 nM | 
YXEGTFTSDYSIXLEEQAQXAFVRHLINKXTRQRY (Aib at 2, 13, 20, 30; Lys29 epsilon-amino acylated with C18DA-gGlu-gGlu-gGlu-gGlu-gGlu; C-terminal amide) [Compound 75] | 13.2 nM | 191 nM | 904 nM |  | 0.3 nM | 
YXEGTFTSDYSIXLEKQAQXAFVRHLINKXTRQRY (Aib at 2, 13, 20, 30; NMeQ at 33; Lys29 epsilon-amino acylated with C18DA-gGlu-gGlu-gGlu-gGlu-gGlu-gGlu-eLys; C-terminal amide) [Compound 17] | 2 nM | 29.4 nM |  |  |  | 
YXEGTFTSDYSIXLEXQAQXAFVRHLINKXTRQRY (Aib at 2, 13, 16, 20, 30; Lys29 epsilon-amino acylated with C18DA-gGlu-gGlu-gGlu-gGlu-gGlu-gGlu-eLys; C-terminal amide) [Compound 5] | 25 nM | 28.6 nM | 89.4 nM |  |  | 
YXEGTFTSDYSIXLDEQAQXAFVRHLINKXTRQRY (Aib at 2, 13, 20, 30; Lys29 epsilon-amino acylated with C18DA-gGlu-gGlu-gGlu-gGlu-gGlu-gGlu-eLys; C-terminal amide) [Compound 40] |  | 16.2 nM | 59.4 nM |  | 0.3 nM | 
YXEGTFTSDYSIXLEKQAQXEFVRHLINKLTRQRY (Aib at 2, 13, 20; Lys29 epsilon-amino acylated with C18DA-gGlu-gGlu-gGlu-gGlu-gGlu-gGlu-eLys; C-terminal amide) [Compound 83] |  | 16.8 nM | 31.7 nM |  | 0.4 nM | 
YXEGTFTSDYSIXLDKQAQXAFIRHLINKXTRQRY (Aib at 2, 13, 20, 30; Lys29 epsilon-amino: C18DA-gGlu-gGlu-gGlu-gGlu-gGlu-gGlu-eLys; C-terminal amide) [Compound 102] |  |  |  | 0.1 nM |  | 2.8 nM
YXEGTFTSDYSIXLEKQAYXAFVRHLINKXTRQRY (Aib at 2, 13, 20, 30; Lys29 epsilon-amino acylated with C18DA-gGlu-gGlu-gGlu-gGlu-gGlu-gGlu-eLys; C-terminal amide) [Compound 84] | 48.4 nM | 18.5 nM | 55 nM |  | 5 nM | 
Y[Aib]EGTFTSDYSI[Aib]LEKQAQ[Aib]AFVRHLINK([εLys-γGlu-γGlu-γGlu-γGlu-γGlu-γGlu-γGlu-C20 diacid])[Aib]TRQRY-NH2 [Compound 35] |  | 22.9 nM |  |  | 0.7 nM | 
Y[Aib]EGTFTSDYSI[Aib]LEKQAQ[Aib]EFVRHLINK([εLys-γGlu-γGlu-γGlu-γGlu-γGlu-γGlu-γGlu-C18 diacid])LTRQRY-NH2 [Compound 32] | 6.5 nM | 17.1 nM | 44.6 nM |  | 0.5 nM | 
Y[Aib]EGTFTSDLSI[Aib]LEKQAQ[Aib]AFVRHLINK([γGlu-εLys-γGlu-γGlu-γGlu-γGlu-γGlu-C20 diacid])[Aib]TRQRY-NH2 [Compound 60] | 8 nM |  | 124 nM |  | 0.3 nM | 
Y[Aib]EGTFTSDYSI[Aib]LEEEAQ[Aib]EFVRHLINK([γGlu-γGlu-γGlu-γGlu-C18 diacid])[Aib]TRQRY-NH2 [Compound 64] |  | 162 nM | 720 nM |  | 0.5 nM | 
Y[Aib]EGTFTSDYSI[Aib]LEKQAQ[Aib]EFVRHLINK([AEEA-AEEA-γGlu-γGlu-γGlu-γGlu-C18 diacid])[Aib]TRQRY-NH2 [Compound 73] | 5.9 nM |  | 136 nM |  | 0.4 nM | 
Y[Aib]EGTFTSDYSI[Aib]LEKQAQ[Aib]AFVRHLINK([γGlu-γGlu-γGlu-γGlu-γGlu-γGlu-TRX-C18 diacid])[Aib]TRQRY-NH2 (reading uncertain) [Compound 31] | 14.9 nM | 76.4 nM | 131 nM |  |  | 
Y[Aib]EGTFTSDYSI[Aib]LEKQAE[Aib]AFVRHLINK([εLys-εLys-γGlu-γGlu-γGlu-γGlu-γGlu-γGlu-C20 diacid])[Aib]TRQRY-NH2 [Compound 82] | 11.7 nM |  | 75.1 nM |  |  | 
